Experimental data from PMC6313406.

Target: Dimeric Lip3 (isoenzyme 3 of Candida rugosa lipase) (Candida rugosa) (UniProt P32947)
Assay: SEC; Sephacryl S200 column (1.6x60 cm), 25 mM Tris/HCl pH 7.5, 0.15 M NaCl, 0.3 mL/min, no detergent; calibrated with the high molecular weight marker kit

stoichiometry N: 2
Substance: Dimeric Lip3 (isoenzyme 3 of Candida rugosa lipase) (from UniProt P32947 16-549)
